The supplement of paper PMC9170038

Tested on: MS2 coat protein
Assay: apparent KD of MS2 coat protein; designed switch direction (-1 OFF switch, 1 ON switch): -1; higher = weaker reporter binding
Outline: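 The reported apparent KD is a per-design median over clusters, from curve fits of normalised cluster fluorescence. Protein titrations used SNAP-549-labelled MS2 coat protein, doubled from 0.7 or 1.5 nM to 3 µM, in Tris-HCl pH 7.5 buffer with KCl, MgCl2, BSA, DTT, tRNA and Tween-20, with no input, 200 uM small-molecule ligand, or an oligonucleotide input. The RNA switches were transcribed on Illumina chips by stalled E. coli RNA polymerase.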

[1] = Eterna round: R95, input ligand: FMN 200 uM
[2] = Eterna round: R95, input ligand: microRNA oligo, concentration not stated
[3] = Eterna round: R95, input ligand: none
[4] = input ligand: microRNA oligo, concentration not stated

| Sequence | apparent KD of MS2 coat protein (input ligand: FMN 200 uM) [nM] | apparent KD of MS2 coat protein (input ligand: none) [nM] | apparent KD of MS2 coat protein [1] [nM] | apparent KD of MS2 coat protein [2] [nM] | apparent KD of MS2 coat protein [3] [nM] | apparent KD of MS2 coat protein [4] [nM] |
| --- | --- | --- | --- | --- | --- | --- |
| AUAAUGUCAGGAUAUCAGACGUACAGCUUCGGCUGUACGUCUGAGAAGGGACAUGAGGAUCACCCAUGUGAUUA [E4/3-A1] (Eterna round: R97, puzzle: Exclusion 4) | 224 | 940 | – | – | – | – |
| AUAUACGGGCAGGAUAUGCGAGCCAGAAAGCACGCAGAAGGGCUAACAUGAGGAUCACCCAUGUGAGCAACUCG [Eternabot (Original) Solution 9] (Eterna round: R97, puzzle: Exclusion 6) | 18.1 | 14.9 | – | – | – | – |
| GAUGGACAUGAGGAUCACCCAUGUAAGGAUAUACGGUUGGUAGAGAGAGAGAGGAAUGGUAGAAGGUACGGAGG [JR_Exclu1_Sub052] (puzzle: Exclusion 1) | – | – | 38.7 | 43.1 | 55.9 | – |
| CUCUCACAUGAGGAUCACCCAUGUUAGGAUAUUCCGUAGCGACUUACAAGAGGAGCAGGAAGAAGGAGCCUGGC [Eternabot (L1) Solution 40] (Eterna round: R97, puzzle: Exclusion 1) | 343 | 435 | – | – | – | – |
| CCAUCGUGUGUGAGGAUAUGCUGGUCCUUGGAUCAGCAGAAGGCACAUGAGGAUCACCCAUGUGAAAACGAUGG [Mat - Exclusion 4 - JL Mod - D88] (puzzle: Brourd's mod of Exclusion 4) | – | – | – | 16.8 | – | – |
| GAAAAGGCAGAGGAUAUUUCAGAUCAAAGCUGCAAAGAAGGCUGCACAUGAGGAUCACCCAUGUGGUCUUAAAA [Mod of Quesina 5 - Jieux - Exclusion 6] (Eterna round: R97, puzzle: Exclusion 6) | 176 | 18.4 | – | – | – | – |
| ACCUUACUGGUCAGGAUAUACAGUCUUUGGUGUGUGUAGAAGGGACAUGAGGAUCACCCAUGUAGGUUGCUUUA [alecazam62] (Eterna round: R97, puzzle: Brourd's mod of Exclusion 4) | 220 | 141 | – | – | – | – |
| AUUUACGGAGGAUAUACUUGAGGAUCACCCAAGUGGAGUCCCGUUUGGGCGGUAAAUAGUAGAAGGCCGUCCCA [jl-ex3-4.45 ViennaUCT mod] (Eterna round: R97, puzzle: Exclusion 3) | 20.2 | 13.3 | – | – | – | – |
| ACCUCACAUGAGGAUCACCCAUGUCAGGAUAUCCAACAUGCUCCCAGGACCAAGCAUAGGAGAAGGGACAUGCG (Eterna round: R97, puzzle: Exclusion 1) | 76.5 | 27.2 | – | – | – | – |
| GUUUUAUAUGAAGGAUAUACUUAACAUGAGGAUCACCCAUGUGGUGUUGUGAGUGAGUGAGUUUAGUAGAAGGUCAAUUCUUUU [JMF's solution 99] (Eterna round: R96, puzzle: Exclusion NG 2) | 622 | 408 | – | – | – | 593 |
| ACAAGCUUUUUGUUCGUCUUAUACACUCCUAAUAAGACAACAUGAGGAUCACCCAUGUAACAAACAAGAACUCAUGU [Sesor Array 6 - Jieux - Sensor v3, turn-off variant 2] (puzzle: Sensor v3, turn-off variant 2) | – | – | 55.1 | 359 | 72.5 | – |
| AUCAUGUGAGGAUAUGUGAUCAACCUUCUGUAUAGAUGAUUACAGAAGGCACAUGAGGAUCACCCAUGUAGAUC [Ex4 - 3 - 21] (puzzle: Exclusion 4) | – | – | – | 55.7 | – | – |
| GUUUUCAGACGGAGAUCCUACAUGAGGAUCACCCAUGUCUCUCAAGCUAAUUGCUCGUCUUAUUCUCCUCUGUUCUC [Elimod 39 - Jieux - Sensor, turn-off variant 1] (Eterna round: R97, puzzle: Sensor, turn-off variant 1) | 35.6 | 41 | – | – | – | – |
| CUUUUGUGAGGAUAUCAGUAGUAAAAUAAUAAAAUUACUACUGAGAAGGCACAUGAGGAUCACCCAUGUUCCUC [salish99_ex4_r3_019] (puzzle: Exclusion 4) | – | – | – | 36.4 | – | – |
| CUUUUGUGAGGAUAUUAGUAGUAAAUAAAUAAAAUUACUACUGAGAAGGCACAUGAGGAUCACCCAUGUUCCUC [Salish 062 v16] (Eterna round: R97, puzzle: Exclusion 4) | 358 | 42.9 | – | – | – | – |
| AGUAACCGUCACGAAAGUGAUGGUUACACAGGCAAAUGUACAUGAGGAUCACCCAUGUCCUCAAUUGCUCGUCUUAU [Sensor 3 - 53] (puzzle: Sensor v3, turn-off variant 2) | – | – | 115 | 181 | 120 | – |
| GCAGCACAUGUAGGAUAUCUGCACGUUUAGUGCAGAGAAGGACAUGAGGAUCACCCAUGUAAUUAAGAUCAAUUAUUAAGCUGC [ENG1/3-C2] (Eterna round: R96, puzzle: Exclusion NG 1) | 178 | 44.2 | – | – | – | 32.1 |

| Sequence | apparent KD of MS2 coat protein (input ligand: FMN 200 uM) [nM] | apparent KD of MS2 coat protein (input ligand: none) [nM] | apparent KD of MS2 coat protein [1] [nM] | apparent KD of MS2 coat protein [2] [nM] | apparent KD of MS2 coat protein [3] [nM] | apparent KD of MS2 coat protein [4] [nM] |
| --- | --- | --- | --- | --- | --- | --- |
| UGUAAGCUAGGAUAUGCUUUGGGAAAGCAUUCCUUCGAUAAACUUGAGGAUCACCCAAGUAGAAGGAGCUUACA [salish99_ex2_r4_005] (Eterna round: R97, puzzle: Exclusion 2) | 20.8 | 12.4 | – | – | – | – |
| CCAUAUAACUGAGGAUAUCAUCGCCACUGACGUUGAGAAGGCAGACAUGAGGAUCACCCAUGUGAUUUCUCAAUAUUAUACAUC [Prohibition 79 - Jieux - Exclusion NG 1] (Eterna round: R96, puzzle: Exclusion NG 1) | 118 | 40 | – | – | – | 33.8 |
| GUUACACAUGAGGAUCACCCAUGUGAGGAUAUGGAUUCGUUAGAAGUAGAAGAUGGAUCCAGAAGGCGCGUGAG [JR_Ex1_Sub079] (Eterna round: R97, puzzle: Exclusion 1) | 160 | 62.7 | – | – | – | – |
| ACCUUACUUGAGGAUCACCCAAGUCAGGAUAUACACCAGAAUAAAUCCCAGCCCUGGCGUAGAAGGGACGGGUG [Soesma] (Eterna round: R97, puzzle: Exclusion 1) | 23.9 | 21.8 | – | – | – | – |
| UGAUCUAGCGGAGGAUAUACAUGAGGAUCACCCAUGUAAAUCGCUUUACCGUAGUGAAGCAUCAUGUAGAAGGCCGCUAGAUCU [MOD3 ENG2 3.62 by JL] (Eterna round: R96, puzzle: Exclusion NG 2) | 59.3 | 592 | – | – | – | 480 |
| GAUAGAGCAGGAUAUCGAGAUCCGCACAUGAGGAUCACCCAUGUUCGGUCGAAAGACCGACGAGAAGGGCUGUAUC [Omei Ex5 E7] (Eterna round: R97, puzzle: Exclusion 5) | 838 | 4190 | – | – | – | – |
| ACAAGCUUAAUCUGUAUGAACAUGAGGAUCACCCAUGUAUAAGGGAAUUCUUUUGGGUUUUUUAUAGCUCGUCUUAU [JR_STOV1_Sub020] (Eterna round: R97, puzzle: Sensor, turn-off variant 1) | 280 | 337 | – | – | – | – |
| ACAGUGUUAGGAUAUCUGAGAAUUAGUCUCGACUAGUCGAAGGAGAAGGAACAUGAGGAUCACCCAUGUAGAUC [EX4 #76] (Eterna round: R97, puzzle: Exclusion 4) | 295 | 41.6 | – | – | – | – |
| GCAGCACAUGUAGGAUAUCUGCACGAUUAGUGCAGAGAAGGACAUGAGGAUCACCCAUGUAAUUAAGAUCAAUUAUUAAGCUGC [ENG1/3-C1] (Eterna round: R96, puzzle: Exclusion NG 1) | 374 | 46.1 | – | – | – | 36.4 |
| AGUAACAGAGGAUAUACUGUUUUAUGUGUUUGUUAUUUUAAACAUGAGGAUCACCCAUGUAGAAGGCUGAAUGA [JMF 99] (puzzle: Exclusion 2) | – | – | – | 24.7 | – | – |
| ACAUGAGGAUCACCCAUGUACAGGGUUUAGCCUCAUUGUUUGAAGGAUAUACUCAGUUAGUUGUUGUAGAAGGUCACCUUUUAU [JR_ExcNG3_Sub003] (Eterna round: R96, puzzle: Exclusion NG 3) | 3450 | 1360 | – | – | – | 1730 |
| GCACAGUGAGGAUAUACAUGAGGAUCACCCAUGUCCGCCGAUUAAGAGGUAUCAACGUGUAGAAGGUACCAGCG [Eternabot (Original) Solution 25] (Eterna round: R97, puzzle: Exclusion 3) | 17.2 | 18.5 | – | – | – | – |
| UUAAGGGACUGAGGAUAUACAUGAAUUAUGUUUGUAGAAGGCAGAUUGUUAGUUUAUUCACUAUACAUGAGGAUCACCCAUGUU [JR_ExcNG1_Sub019] (Eterna round: R96, puzzle: Exclusion NG 1) | – | – | – | – | – | 17.1 |
| CCGAGCAUAUGAGGAUCAGACAUGAGGAUCACCCAUGUGCUCCGUCGAAGGAAUAAUCAUAAUGCUGGCUCGUCGUG [Eternabot (L2) Solution 6] (Eterna round: R97, puzzle: Sensor, turn-off variant 1) | 555 | 457 | – | – | – | – |
| AGUUGGCGAGGAUAUACAUGAGGAUCACCCAUGUAUGAGAUAAAAGUGAGGUAAAUAUGUAGAAGGCGCUGACA [JR_Ex3_Sub078] (Eterna round: R97, puzzle: Exclusion 3) | 897 | 107 | – | – | – | – |
| CAGAAGCAAGGAUAUACAACGGGCCACAGAGCGAGAGGGCAACAUGAGGAUCACCCAUGUAGAAGGUGCGUAAC [Timaina] (puzzle: Exclusion 2) | – | – | 47.5 | 97.4 | 74.4 | – |
| GGUCAUCAAGUCAGGAUAUCGUCAAAUCAAUCAGGCGAGAAGGGACAUGAGGAUCACCCAUGUCGACUCAUCAG [Ex4 #5] (Eterna round: R97, puzzle: Brourd's mod of Exclusion 4) | 123 | 34.3 | – | – | – | – |
